Patent publication US11661461B2, “Phospho-Rab antibodies, assays and methods of use thereof” (Denali Therapeutics Inc., priority 2017, dated 2023)
Entries after “also recorded” stand apart in the source; their conditions may differ.

T1: pT73-Rab10 (Homo sapiens, UniProt P61026)
T1 construct: Strong endogenous phosphorylated Rab10 or phosphorylated Rab8a in human PBMC; host or cells: human PBMC
T1 sequence (P61026 1-200): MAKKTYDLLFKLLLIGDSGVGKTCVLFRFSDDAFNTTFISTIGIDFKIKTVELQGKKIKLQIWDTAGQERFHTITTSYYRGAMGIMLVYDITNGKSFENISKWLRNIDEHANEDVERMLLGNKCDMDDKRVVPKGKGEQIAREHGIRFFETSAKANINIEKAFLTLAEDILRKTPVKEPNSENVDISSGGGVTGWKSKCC

T2: endogenous phosphorylated Rab10 in human PBMC (Homo sapiens, UniProt P61026)
T2 construct: Strong endogenous phosphorylated Rab10 or phosphorylated Rab8a in human PBMC; host or cells: human PBMC
T2 sequence (P61026 1-200): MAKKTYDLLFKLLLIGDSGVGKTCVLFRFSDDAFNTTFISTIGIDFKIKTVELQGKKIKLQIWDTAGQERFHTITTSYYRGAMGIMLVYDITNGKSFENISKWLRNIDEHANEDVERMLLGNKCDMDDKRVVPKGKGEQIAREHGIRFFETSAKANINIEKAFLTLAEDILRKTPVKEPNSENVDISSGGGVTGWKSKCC

T3: phosphorylated Rab10 in lysates of HEK cells overexpressing LRRK2 (Homo sapiens, UniProt P61026)
T3 construct: expressed in transfected cells; host or cells: HEK cells overexpressing LRRK2
T3 sequence (P61026 1-200): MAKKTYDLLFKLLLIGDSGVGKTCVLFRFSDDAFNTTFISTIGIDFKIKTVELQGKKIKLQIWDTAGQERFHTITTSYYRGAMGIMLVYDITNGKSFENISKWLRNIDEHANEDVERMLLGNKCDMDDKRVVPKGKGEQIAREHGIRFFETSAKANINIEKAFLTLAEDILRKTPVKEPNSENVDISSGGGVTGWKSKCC

T4: endogenous phosphorylated Rab8a in human PBMC (Homo sapiens, UniProt P61006)
T4 construct: Strong endogenous phosphorylated Rab10 or phosphorylated Rab8a in human PBMC; host or cells: human PBMC
T4 sequence (P61006 1-207): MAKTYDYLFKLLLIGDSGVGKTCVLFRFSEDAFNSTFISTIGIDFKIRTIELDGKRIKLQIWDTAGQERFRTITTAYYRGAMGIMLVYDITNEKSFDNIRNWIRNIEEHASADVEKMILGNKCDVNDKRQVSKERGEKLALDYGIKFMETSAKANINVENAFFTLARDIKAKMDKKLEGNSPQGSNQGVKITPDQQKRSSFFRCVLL

B1: Clone 19-4: anti-phosphorylated (pT73) Rab10 rabbit monoclonal antibody; VH SEQ ID NO:17, VL SEQ ID NO:18 (antibody, V domains shown)
VH: METGLRWLLLVAVLKGVQCQSVEESGGRLVTPGTPLTLTCTVSGFSLSSYAMVWVRQAPGKGLEYIGLISRSGVTYYATWAKGRFTISKASTTVDLKIASPTTGDTATYFCVRDYDSAGWSGFTIWGPGTLVTVSA
VL: MDTRAPTQLLGLLLLWLPGAICDPVMTQTPSSTSAAVGGTVTINCQSSQSVYGNNYLSWYQQKPGQPPKLLIYKASTLASGVPSRFVGSGSGTQFTLTISDLECDDAATYYCAGAASDTRFFGGGTELVVN
B2: Clone 81-11: anti-phosphorylated (pT73) Rab10 rabbit monoclonal antibody; VH SEQ ID NO:21, VL SEQ ID NO:25 (antibody, V domains shown)
VH: METGLRWLLLVAVLKGVQCQSVEESGGRLVTPGTPLTLTCTVSGFSLSSYAMSWVRQAPGKGLEYIGLFNDVGIAYYANWAKGRFTFSKTSTTVDLKITSPTTEDTATYFCARVGGTTRVYGMDLWGPGTLVTVSS
VL: MDTRAPTQLLGLLLLWLPGATFAAVLTQTPSPVSAAVGGTVSISCQSSKSVRHNNYLSWYQQKPGQRPKLLIYGASTLASGVPSRFSGSGSGTEFTLTISDVQCDDAATYYCAGGYSGGGDDAFGGGTEVVVE
B3: Clone 20: anti-phosphorylated (pT72) Rab8a rabbit monoclonal antibody; VH SEQ ID NO:63, VL SEQ ID NO:66 (antibody, V domains shown)
VH: METGLRWLLLVAVLKGVQCQSVEESGGRLVTPGTPLTLTCTVSGFSLSSYAMGWVRQAPGEGLEYFGIINTGGSAYYTNWAKGRFTISRTSTTVHLKITSPTTEDTATYFCARIAGDTRYYGMDPWGPGTLVTVSS
VL: MDTRAPTQLLGLLLLWLPGATFAAVLTQTPSPVSAAVGGTVSISCQSSKSVRNNNYLAWYQQKPGQPPKLLIYGASTLASGVPSRFKGSGSGTQFTLTISDVQCDDAATYYCAGGYDGGSDDAFGGGTEVVVK
B4: Clone 71-3: anti-phosphorylated (pT72) Rab8a rabbit monoclonal antibody; VH SEQ ID NO:71, VL SEQ ID NO:75 (antibody, V domains shown)
VH: METGLRWLLLVAVLKGVQCQSVEESGGRLVTPGTPLTLTCTASGFSLNVYYMTWVRQAPGKGLDWIGIINTDITVHYANWARGRFTISKTSTTVDLKITSPTTEDTATYFCARARNSAWMDIWGPGTLVTVSL
VL: MDTRAPTQLLGLLLLWLPGATFAAVLTQTPSPVSAAVGGTVTINCQSDWSVYNNNLAWYQHKPGQPPKLLIYKTSTLASGVPSRFRGSGSGTQFTLTISDVQCDDTATYYCAGGYYRDSDTAFGGGTEVVVK
B5: Clone 86-9: anti-phosphorylated (pT72) Rab8a rabbit monoclonal antibody; VH SEQ ID NO:81, VL SEQ ID NO:85 (antibody, V domains shown)
VH: METGLRWLLLVAVLKGVQCQSVEESGGRLVTPGTPLTLTCTVSGFSLSSYYITWVRQAPGKGLEWLGIMNAGTTVHYANWVKGRFAISKTSTTVDLKITSPTTEDTATYFCARARNSVWMDIWGPGTLVTVSL
VL: MDTRAPTQLLGLLLLWLPGATLAAVLTQTPSPVSGAVGGSVTVNCQSDKSVYRDNLAWYQQKPGQPPKLLIYKASTLASGVPSRFRGSGAGTQFTLTISDVQCDDAATYFCAGGYSSDSDTAFGGGTEVVVK

Legend:
LRRK2 = assay: 7 days of dosing in cynomolgus monkeys, pT73-Rab10 and pS935-LRRK2 western blot; format: in vivo, cynomolgus monkey; conditions: 45 mg/kg daily
Description: Phosphorylated Rab10 was also tested in cynomolgus monkey lung and kidney tissue following 7 days of dosing with a LRRK2 inhibitor. Cynomolgus monkeys were dosed daily with the LRRK2 Inhibitor C at a dose of 45 mg/kg. […] Signals from dosed groups were normalized to vehicle control group. Data were presented as mean with SEM.

pT73-Rab10 = target: T1, pT73-Rab10; assay: Phospho-Rab10 MSD assay (clone 19-4 as capture antibody); format: binding; conditions: anti-total Rab10 antibody for detection
[1] = target: T2, endogenous phosphorylated Rab10 in human PBMC; assay: Western blot of human PBMC with anti-pT73-Rab10 antibodies; format: binding; conditions: for detection of endogenous phosphorylated Rab10 signals in human PBMC by western blot: antibody at 1 ug/ml; for Western blot Human PBMC Ratio of DMSO/LRRK2 inhibitor A (mean ± SEM): band intensity normalized with Actin control for each of DMSO and LRRK2 inhibitor A, antibody 1 ug/ml
[2] = target: T3, phosphorylated Rab10 in lysates of HEK cells overexpressing LRRK2; assay: Sandwich ELISA (diagnostic), HEK cells overexpressing LRRK2; format: binding; conditions: for Sandwich ELISA (diagnostic), Ratio: DMSO / LRRK2 inhibitor A RLU; for Sandwich ELISA (diagnostic) HEK cells overexpressing LRRK2, DMSO (RLU mean ± SD): DMSO treated cells; for Sandwich ELISA (diagnostic) HEK cells overexpressing LRRK2, LRRK2 inhibitor A (RLU mean ± SD): cells treated with LRRK2 inhibitor A
Description: Sandwich ELISA (Diagnostic) with Anti-Phospho-Rab10 Antibody as the Capture Antibody:
ELISA plates were prepared by coating white Nunc MaxiSorp 384 well plates (Thermo Fisher #460372/Sigma #P6491) with capture antibody for 1 hour at room temperature on a shaking platform. The capture antibody was purified anti-phospho-Rab10 clone 19-4 diluted to 1 ug/mL in carbonate-bicarbonate buffer, and 15 uL/well of coating solution was added to the plate before incubation. Plates were then washed 3× with TBST on a BioTek plate washer. For all subsequent blocking/incubation steps, Pierce Starting Block T20 (TBS) was used (Thermo Fisher #37543). Plates were blocked […] in this solution using 80 uL/well and washed 3× as before. Afterwards samples of cell lysates were added (neat with no dilution) using 30 uL/well and incubated 1 hour at room temperature on a shaking platform. After another 3× wash detection antibody (Creative Diagnostics DCABH 13141, or Abcam, ab104859, 2 ug/mL) was added using 30 uL/well. After 60 minute incubation at room temperature and washing 3×, the secondary anti-species conjugate was added (anti-rabbit HRP antibody (Jackson ImmunoResearch 111-035-144) diluted 1:20000 in assay diluent) at 30 uL/well. After a 60 minute incubation, plates were washed 3× as before. The HRP substrate (Supersignal ELISA Femto HRP substrate—Thermo Fisher #37075) was prepared during this time by mixing both components and equilibrating to room temperature. 50 uL/well of substrate was added to plates, which then were covered and briefly incubated for 1-2 minutes on a shaker platform. Afterwards plates were read on the Synergy plate reader to measure relative light units (RLU).
Sandwich ELISA (Diagnostic) with Anti-Rab10 (Total) Antibody as the Capture Antibody:
ELISA plates were prepared by coating white Nunc MaxiSorp 384 well plates (Thermo Fisher #460372/Sigma # P6491) with capture antibody overnight at 4° C. on a shaking platform. The capture antibodies (anti-Rab10 antibody from either Creative Diagnostics, DCABH-13141, or Abcam, ab104859) were diluted to […] (or 1:100 if the concentration not known) in carbonate-bicarbonate buffer, and 15 uL/well of coating solution was added to the plate before incubation. After this plates were washed 3× with TBST on a BioTek plate washer. For all subsequent blocking/incubation steps, Pierce Starting Block (TBS) (no Tween added) was used (Thermo Fisher #37542). Plates were blocked for 1 hour at room temperature in this solution using 80 uL/well and washed 3× as before. Afterwards samples were added (with lysates being diluted 1:20 in the assay diluent) using 30 uL/well and incubated 2 hours at room temperature on a shaking platform. After another 3× wash detection antibodies were added (diluted to 1 ug/mL for purified antibodies or 1:2 for supernatants) using 30 uL/well. After 90 minute incubation at room temperature and washing 3× the secondary anti-species conjugate was added (anti-rabbit HRP antibody (Jackson ImmunoResearch 111-035-144) diluted 1:20000 in assay diluent) at 30 uL/well. After a 45 minute incubation plates were washed 3× as before. The HRP substrate (Supersignal ELISA Femto HRP substrate—Thermo Fisher #37075) was prepared during this time by mixing both components and equilibrating to room temperature. 50 uL/well of substrate was added to plates, which then were covered and briefly incubated for 1-2 minutes on a shaker platform. Afterwards plates were read on the Synergy plate reader to measure relative light units (RLU).

[3] = target: T4, endogenous phosphorylated Rab8a in human PBMC; assay: Western blot of human PBMC with anti-pT72-Rab8a antibodies; format: binding; conditions: for detection of endogenous phosphorylated Rab8a signals in human PBMC by western blot: antibody at 1 ug/ml; for Western blot Human PBMC Ratio of DMSO/LRRK2 inhibitor A (mean ± SEM): band intensity normalized with Actin control for each of DMSO and LRRK2 inhibitor A, antibody 1 ug/ml
[4] = normalized to actin and vehicle control group, mean with SEM, N = 4
[5] = normalized to vinculin and vehicle control group, mean with SEM, N = 4

| Molecule | Western blot Human PBMC Ratio of DMSO/LRRK2 inhibitor A (mean ± SEM) [1] | Sandwich ELISA (diagnostic), Ratio [2] | Sandwich ELISA (diagnostic) HEK cells overexpressing LRRK2, DMSO (RLU mean ± SD) [2] [RLU] | Sandwich ELISA (diagnostic) HEK cells overexpressing LRRK2, LRRK2 inhibitor A (RLU mean ± SD) [2] [RLU] | Western blot Human PBMC Ratio of DMSO/LRRK2 inhibitor A (mean ± SEM) [3] | detection of endogenous phosphorylated Rab8a signals in human PBMC by western blot [3] | also measured |
| --- | --- | --- | --- | --- | --- | --- | --- |
| Cc1nn(C(C)(C)c2ncn(C)n2)cc1Nc1ncc(C(F)(F)F)c(C2CC2)n1 [LRRK2 Inhibitor C, 4-cyclopropyl-N-(3-methyl-1-(2-(1-methyl-1H-1,2,4-triazol-3-yl)propan-2-yl)-1H-pyrazol-4-yl)-5-(trifluoromethyl)pyrimidin-2-amine] |  |  |  |  |  |  | dephosphorylation of pT73-Rab10 and pS935-LRRK2 (LRRK2; lung and kidney): significant dephosphorylation; pT73-Rab10, Kidney (LRRK2; [4]): 0.547 ± 0.125; pT73-Rab10, Lung (LRRK2; [4]): 0.189 ± 0.0562; pS935-LRRK2, Kidney (LRRK2; [5]): 0.0563 ± 0.0147; pS935-LRRK2, Lung (LRRK2; [5]): 0.102 ± 0.0215 |
| B1 | 2.95 ± 0.68 | 37.40 | 80524 ± 7835 | 2153 ± 774 |  |  | pRab10 signals in phospho-Rab10 MSD assay (pT73-Rab10; human A549 cells, listed as 19-4): showed pRab10 signals; pRab10 signals in phospho-Rab10 MSD assay (pT73-Rab10; human PBMCs): showed pRab10 signals; detection of endogenous phosphorylated Rab10 signals in human PBMC by western blot ([1]; listed as 19-4): detected endogenous phosphorylated Rab signals; also recorded: Detection of phosphorylated Rab10 |
| B2 | 2.48 ± 0.31 | 33.74 | 473585 ± 44210 | 14037 ± 1627 |  |  | detection of endogenous phosphorylated Rab10 signals in human PBMC by western blot [1]: detected endogenous phosphorylated Rab signals |
| B3 |  |  |  |  | 3.50 ± 0.52 |  | detection of endogenous phosphorylated Rab8a signals in human PBMC by western blot ([3]; listed as 20): detected endogenous phosphorylated Rab signals |
| B4 |  |  |  |  | 2.61 ± 0.42 | detected endogenous phosphorylated Rab signals |  |
| B5 |  |  |  |  | 2.26 ± 0.12 | detected endogenous phosphorylated Rab signals |  |
